The record followed here is patent US20060154864, “Transcript factor and an Akt substrate related to transcriptional action of insulin and applications of same” (Emory University, published 2006).

The test system of data set [1] is IRE-BP1 C-terminal fragment (3.4-kb cDNA) (Rattus norvegicus). The experiment in a line: cell_activity.
Another data set addresses NFkB p50 (UniProt P19838 P19838:1-433). The data set can be described thus: EMSA; supershifted by p50 antibody. The settings on record: tags: E. coli-expressed; chain copies: 2; label: 32P. (A gel shift assay detects complexes by their altered migration in electrophoresis.)

Chain of NFkB p50 (P19838 1-433, one chain of several): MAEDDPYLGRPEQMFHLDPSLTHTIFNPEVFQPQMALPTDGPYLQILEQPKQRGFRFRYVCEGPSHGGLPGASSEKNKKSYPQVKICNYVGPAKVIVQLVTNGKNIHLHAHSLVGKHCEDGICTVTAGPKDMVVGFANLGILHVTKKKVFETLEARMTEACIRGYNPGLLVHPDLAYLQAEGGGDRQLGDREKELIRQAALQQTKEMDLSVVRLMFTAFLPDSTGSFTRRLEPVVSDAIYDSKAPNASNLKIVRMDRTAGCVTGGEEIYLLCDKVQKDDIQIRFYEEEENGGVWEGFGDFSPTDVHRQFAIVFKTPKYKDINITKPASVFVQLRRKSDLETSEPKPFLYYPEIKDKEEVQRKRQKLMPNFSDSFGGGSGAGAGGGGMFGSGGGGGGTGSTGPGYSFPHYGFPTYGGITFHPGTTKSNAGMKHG

In data set [1] (COS-7 luciferase, 2-fold on control vector), “AATTCAAGGGTATCCAGGAAAGTCTCCTTCAAG (double strand) [IGFBP-3 IRE]” yielded an activity of 14 fold.
Regarding “GTTTGTTTTGCTAGT (double strand) [IGFBP-1 IRE]”, the activity in data set [1] (with insulin, vs 24.7% vector alone, no basal effect, SEQ 50 inferred) is 63.2 % decrease.
“GCCTCATTATTCCTGCCCACCAAT (double strand) [IGF-1 IRE]” had an activity in data set [1] (COS-7 luciferase, basal, 3.5-fold with insulin) of 4.7 fold.

B1: IGFBP-3 IRE (dsDNA)
DNA 1: AATTCAAGGGTATCCAGGAAAGTCTCCTTCAAG
DNA 2: CTTGAAGGAGACTTTCCTGGATACCCTTGAATT
In the case of B1, in the data set with NFkB p50, the binding result is “binds”.
